The chains are these.
B1: Lipopolysaccharide-induced tumor necrosis factor-alpha factor (Homo sapiens), Q99732 (parent)
chain: MSVPGPYQAATGPSSAPSAPPSYEETVAVNSYYPTPPAPMPGPTTGLVTGPDGKGMNPPSYYTQPAPIPNNNPITVQTVYVQHPITFLDRPIQMCCPSCNKMIVSQLSYNAGALTWLSCGSLCLLGCIAGCCFIPFCVDALQDVDHYCPNCRALLGTYKRL
partner: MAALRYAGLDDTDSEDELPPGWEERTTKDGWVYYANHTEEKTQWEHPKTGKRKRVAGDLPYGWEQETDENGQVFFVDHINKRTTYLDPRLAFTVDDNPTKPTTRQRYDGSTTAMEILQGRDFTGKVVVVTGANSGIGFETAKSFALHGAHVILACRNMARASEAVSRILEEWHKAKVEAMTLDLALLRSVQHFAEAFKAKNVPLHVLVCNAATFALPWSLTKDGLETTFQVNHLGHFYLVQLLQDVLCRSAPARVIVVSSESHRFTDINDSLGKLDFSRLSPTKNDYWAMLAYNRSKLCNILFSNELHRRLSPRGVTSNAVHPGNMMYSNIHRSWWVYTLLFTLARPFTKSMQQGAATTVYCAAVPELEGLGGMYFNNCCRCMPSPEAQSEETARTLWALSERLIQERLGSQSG
B2: WW domain-containing oxidoreductase (Homo sapiens), Q9NZC7 (parent)
chain: B1 partner
B3: WW domain-binding protein 1 (Homo sapiens), Q96G27 (parent)
chain: MARASSGNGSEEAWGALRAPQQQLRELCPGVNNQPYLCESGHCCGETGCCTYYYELWWFWLLWTVLILFSCCCAFRHRRAKLRLQQQQRQREINLLAYHGACHGAGPFPTGSLLDLRFLSTFKPPAYEDVVHRPGTPPPPYTVAPGRPLTASSEQTCCSSSSSCPAHFEGTNVEGVSSHQSAPPHQEGEPGAGVTPASTPPSCRYRRLTGDSGIELCPCPASGEGEPVKEVRVSATLPDLEDYSPCALPPESVPQIFPMGLSSSEGDIP
partner: B1 partner

The first experiment covers variants of B1. Conditions: with wwox_human WWOX.
With Y23A;Y61A, the “effect of a mutation on the interaction” value was “disrupting interaction”.

On to Y23A, for which the “effect of a mutation on the interaction” value is recorded as “decreasing interaction”.

The variants in a further experiment derive from B2. Conditions: with litaf_human LITAF.
In the case of W44F;P47A, the “effect of a mutation on the interaction” value is “disrupting interaction”. As for Y85A;P88A, the “effect of a mutation on the interaction” value is “decreasing interaction”.

Variants of B3 are the subject of another experiment. To be noted: with wwox_human WWOX.
For the variant Y141A, the “effect of a mutation on the interaction” value is listed as “disrupting interaction”.

(Values after IntAct's records for PubMed 15064722.)
